Test results taken from US20090175866A1, “TREATMENT OF B-CELL MALIGNANCIES” (priority 2004, published 2009).

Tests used:
WT FGFR3 = target: T1, WT FGFR3 (Homo sapiens, UniProt P22607); assay: Ligand-stimulated receptor phosphorylation in RCJ-FGFR3 cells (immunoprecipitation, Western blot); format: cell-based
T1 construct: expressed in transfected cells; host or cells: B9 cells
Experimental: FIG. 1C is a photograph of a Western blot showing immune staining of RCJ-FGFR3 cell lysates. RCJ cells were stimulated with FGF (+) with or without pre-incubation with a Fab. Lane 1—no FGF stimulation and no pre-incubation with a Fab. Lane 2—FGF stimulation, no pre-incubation with a Fab. Lane 3—FGF stimulation and pre incubation with a control (C) antibody. Lane 4—FGF stimulation and pre-incubation with an anti-FGFR3 (001) Fab.
Non-transformed rat chondrocyte cell line expressing PGFR3 in an inducible manner (RCJ-FGFR3) has been described previously (Rauchenberger R. et al. J. Biol. Chem. 2003; 278:38194-205). Cells were maintained in α-Minimum Essential Media supplemented with 15% fetal calf serum (FCS), 2 mM L-Glutamine, 100 U/ml penicillin, 100 μg/ml streptomycin, 600 μg/ml G418 (Gibco BRL, Ontario, Canada), 2 μg/ml Tetracyclin (Sigma, Ontario, Canada), and 50 μg/ml HygromycinB (Gibco BRL). […]
Cells were lysed in lysis buffer (50 mM Tris/HCl, pH 8.0, 150 mM […], 0.1 mM ZnCl2, 0.5% Nonidet NP-40, 1 mg/ml, complete protease inhibitor mix (Roche Molecular Biochemicals, Mannheim, Germany)), and clarified by centrifugation at 12,000×g for 15 minutes. The lysates were subjected to immunoprecipitation for 16 hours at 4° C. with anti-FGFR3 (C15) and analyzed by 7.5% sodium dodecyl-polyacrylamide gel electrophoresis (SDS-PAGE) and Western blot with anti-phosphotyrosine (4G10 from R&D). […]

ERK1/2 phosphorylation = ERK1/2 phosphorylation in aFGF-stimulated UTMC2 cells (flow cytometry); format: cell-based, human
From the text: FIG. 3 is a flow cytometry chart showing phosphorylation of ERK (Extracellular signal-regulated protein kinase) in UTMC2 cells. The filled histogram represents UTMC2 without FGF stimulation (unstimulated); the light line represents cells stimulated with FGF and treated with a control antibody (FGF/vehicle); the dark line represents cells stimulated with FGF and treated with PRO-001 (FGF/PRO-001).
Determination of ERK1/2 phosphorylation by flow cytometry has been described previously (Chow S, et al., Cytometry 2001; 46:72-78). Cells were serum-starved overnight and then stimulated with 30 ng/ml of aFGF and 10 μg/ml heparin for 10 minutes at 37° C. The cells were immediately fixed by adding 10% formaldehyde directly into the culture medium to obtain a final concentration of 2%. Cells were incubated in fixative for 10 min at 37° C. then on ice for an additional 2 minutes. The cells were permeabilized by adding ice-cold methanol (to a final concentration of 90%) while vortexing and incubated on ice for 30 minutes. […] Flow cytometry was performed on a FACSCaliber® flow cytometer (BD Biosciences, San Jose, Calif.) and analyzed using Cellquest® software (Becton Dickinson).

UTMC2 cells = assay: Apoptosis of UTMC2 cells co-cultured with bone marrow stroma cells (annexin V); format: cell-based, human; details: 5 μg/ml, 72 hours (FIG. 5 legend)
Experimental: FIG. 5 is a graph showing apoptosis of UTMC2 cells in response to treatment with PRO-001 in the presence of BMSCs (stroma). BMSCs alone (stroma) or BMSCs together with UTMC2 cells (stroma/UTMC2) were cultured with control antibody or 5 μg/ml PRO-001 for 72 hours and apoptosis was assessed by means of a flow cytometry assay of annexin V binding and propidium iodide exclusion. Values represent means of quadruplicate cultures ±SD.
For studies of apoptosis, cells were seeded at an initial density of 2.5×10^5/ml in 6 well plates coated with BMSCs and supplemented with control (vehicle or antibody) or 5 μg/ml PRO-001 and cultured for […]. Apoptosis was determined by Annexin V staining (Boehringer Mannheim, Indianapolis, Ind.) and analyzed by flow cytometry. Annexin V is a protein that binds specifically to phosphotidyl-serine in the cell membrane. Binding occurs once the membrane has started to break down and the phospholipids are released into the extracellular media.

T1 sequence (P22607 23-806): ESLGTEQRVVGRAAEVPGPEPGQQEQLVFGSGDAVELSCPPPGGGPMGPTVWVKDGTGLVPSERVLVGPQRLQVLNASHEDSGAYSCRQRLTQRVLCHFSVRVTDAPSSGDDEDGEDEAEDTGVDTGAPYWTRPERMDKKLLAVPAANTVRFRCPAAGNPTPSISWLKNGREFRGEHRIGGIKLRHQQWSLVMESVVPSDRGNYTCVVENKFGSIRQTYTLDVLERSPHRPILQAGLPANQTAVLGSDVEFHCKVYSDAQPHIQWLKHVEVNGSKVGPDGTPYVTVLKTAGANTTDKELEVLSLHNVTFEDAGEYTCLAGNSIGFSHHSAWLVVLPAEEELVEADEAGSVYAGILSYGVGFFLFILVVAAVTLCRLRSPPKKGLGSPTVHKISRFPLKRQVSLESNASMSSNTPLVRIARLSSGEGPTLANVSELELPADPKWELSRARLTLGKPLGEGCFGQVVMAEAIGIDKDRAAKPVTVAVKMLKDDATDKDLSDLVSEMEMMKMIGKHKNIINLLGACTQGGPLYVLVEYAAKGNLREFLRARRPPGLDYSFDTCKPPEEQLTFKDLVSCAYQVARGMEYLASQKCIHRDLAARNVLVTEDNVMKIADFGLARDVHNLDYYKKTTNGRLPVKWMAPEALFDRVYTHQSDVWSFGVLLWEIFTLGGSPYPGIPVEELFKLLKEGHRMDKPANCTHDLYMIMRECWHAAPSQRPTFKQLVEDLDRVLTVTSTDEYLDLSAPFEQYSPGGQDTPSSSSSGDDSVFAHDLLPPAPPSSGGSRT

B1: PRO-001: human anti-FGFR3 Fab from HuCAL library; VH-CDR3 SEQ ID NO:1, VL-CDR3 SEQ ID NO:10; VH SEQ ID NO:19, VL SEQ ID NO:28 (antibody, V domains shown)
VH: QVQLQQSGPGLVKPSQTLSLTCAISGDSVSSNSAAWNWIRQSPGRGLEWLGRTYYRSKWYNDYAVSVKSRITINPDTSKNQFSLQLNSVTPEDTAVYYCARSYYPDFDYWGQGTLVTVSS
VL: DIELTQPPSVSVAPGQTARISCSGDALGDKYASWYQQKPGQAPVLVIYDDSDRPSGIPERFSGSNSGNTATLTISGTQAEDEADYYCQSYDGPDLWVFGGGTKLTVLGQ
Downstream JNK phosphorylation (WT FGFR3): reduction in downstream JNK phosphorylation | Ligand-stimulated autophosphorylation of FGFR3 (WT FGFR3; anti-phosphotyrosine immunoblot): inhibited | Levels of phosphorylated ERK in aFGF-stimulated UTMC2 cells (ERK1/2 phosphorylation): return to those of unstimulated cells | Apoptosis of UTMC2 cells co cultured with BMSC (UTMC2 cells): induces a high level of apoptosis
